Test in all cases: SPR
(Surface plasmon resonance follows binding to a sensor surface in real time, without labels.)

In test [1] the target is T1, Nb6E-biotin (biotin at the C terminus (sortagging)).
Test [2] addresses T1, Nb6E-biotin. The source holds these as a separate data set.
The target in test [3] is T1, Nb6E-biotin. The source holds these as a separate data set.
For a further test, the target named is Nb127–biotin (biotin at the C terminus (sortagging)).

Where two headings read alike, the source gives them in different places.

By Kd is commonly meant a measure of binding affinity in units of concentration. Read a low Kd as a tighter complex.

T1 sequence (VHH, as listed by the source): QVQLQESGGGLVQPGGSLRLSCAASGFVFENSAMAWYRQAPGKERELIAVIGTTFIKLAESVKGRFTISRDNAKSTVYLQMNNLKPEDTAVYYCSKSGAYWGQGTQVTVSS
Nb127–biotin (biotin at the C terminus (sortagging)), sequence (VHH, as listed by the source): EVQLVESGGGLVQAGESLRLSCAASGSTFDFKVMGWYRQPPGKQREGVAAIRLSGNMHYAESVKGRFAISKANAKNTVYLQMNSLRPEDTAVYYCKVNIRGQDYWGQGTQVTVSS

B1: 6E-W8 (peptide)
chain: QADQEAKWLARQIS
In the test with Nb6E-biotin [1], B1 came in with a Kd of 9.2 nM.

B2: 6E-M9 (peptide)
chain: QADQEAKEMARQIS
On to B2, for which, in the test with Nb6E-biotin [2], the affinity, expressed as Kd, was 78.2 nM.

B3: G3-6E (peptide)
chain: GGGQADQEAKELARQIS
In the test with Nb6E-biotin [3], B3 gave a Kd of 4.2 nM.

B4: 6E-W7 (peptide)
chain: QADQEAWELARQIS
As for B4, the Kd with Nb6E-biotin [1] was found to be 17.6 nM.

B5: 6E-WT peptide (peptide)
chain: QADQEAKELARQIS
B5: the affinity in the test with Nb6E-biotin [2], expressed as Kd, was 159 nM.

B6: 6E-W4 (peptide)
chain: QADWEAKELARQIS
As for B6, binding with Nb6E-biotin [1] was characterised by a dissociation constant (Kd) of 15.2 nM.

B7: 127-tag peptide (peptide)
chain: SFEDFWKGED
B7 had a Kd with Nb127–biotin of 16.8 nM.

These data come from paper PMC12212259 (2025).
